Measurements from US20240327518A1 (BETTA PHARMACEUTICALS, published 2024).

Legend:
PD-L1-Biotin = PD-L1-Biotin (UniProt Q9NZQ7 19-238, limits assumed, biotin label (site not stated)); experiment: competitive flow cytometry: antibody premixed with PD-L1-Biotin, blocking of binding to 293T-hPD1 cells
Protocol: The blocking of PD-L1 binding to its ligand PD-1 by the humanized antibodies was measured using a method based on competitive flow cytometry. 293T-hPD1 cells were added to a 96-well plate at 1×10⁵ cells/well. Different concentrations of the antibodies to be tested (the initial working concentration was 200 nM, and 4-fold dilution was performed) were mixed with a PD-L1-Biotin dilution (2 μg/mL, 50 μL/well), and the mixtures were incubated at room temperature for 30 minutes. Then the mixtures were added to the cells at 100 μL/well and well mixed. The plate was incubated at 4° C. for 60 minutes, and the blocking activity of the antibodies was measured using a PE fluorescently labeled streptavidin flow cytometry antibody. The mean fluorescence values were measured. Then antibody-antigen blocking reaction curves were generated using geometric values, and four-parameter plots were generated using the Graphpad Prism V6.0 software.

human PD-L1 on cells [1] = target: T1, human PD-L1 on cells (human, UniProt Q9NZQ7 19-290); experiment: flow cytometry on MC38-hPD-L1 cells overexpressing human PD-L1
T1 construct: whole, on cells; Same protein on three cell lines; also called hPD-L1; the antigen
T1 sequence (Q9NZQ7 19-290): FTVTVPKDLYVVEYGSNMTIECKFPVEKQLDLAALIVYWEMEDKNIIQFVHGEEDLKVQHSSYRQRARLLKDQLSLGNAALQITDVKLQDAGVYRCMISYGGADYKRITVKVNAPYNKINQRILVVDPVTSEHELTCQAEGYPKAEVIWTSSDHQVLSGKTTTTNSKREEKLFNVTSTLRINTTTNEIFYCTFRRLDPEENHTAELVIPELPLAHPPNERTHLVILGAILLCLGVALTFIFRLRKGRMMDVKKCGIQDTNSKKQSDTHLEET
Protocol: The binding activity of the humanized antibodies to PD-L1 was measured by flow cytometry. An MC38-hPD-L1 cell line that overexpresses human PD-L1 (manufacturer: Kyinno Biotechnology (Beijing) Co., Ltd.) was thawed, and the cells were added to a 96-well plate at 1×10⁵ cells/well. Different concentrations of the antibodies to be tested (the initial concentration was 100 nM, and 5-fold gradient dilution was performed) were added, and the plate was incubated at 4° C. for 30 minutes. A fluorescently labeled goat anti-human IgG secondary antibody (manufacturer: abcam, catalog No. 98596) was then added to detect antibodies bound to the cell surfaces. Antibody-antigen binding dose response curves were generated using geometric values, and four-parameter raw data were plotted using the Graphpad Prism V6.0 software.

human PD-L1 on cells [2] = target: T1, human PD-L1 on cells; experiment: cell-based or functional assay
[3] = target: T2, mouse PD-L1-hFc protein (ACRO Biosystems) (mouse, UniProt Q9EP73 19-238); experiment: ELISA, plate coated with mouse PD-L1-hFc
T2 construct: Bought protein; not shown: human Fc (hFc)
T2 sequence (Q9EP73 19-238 limits assumed): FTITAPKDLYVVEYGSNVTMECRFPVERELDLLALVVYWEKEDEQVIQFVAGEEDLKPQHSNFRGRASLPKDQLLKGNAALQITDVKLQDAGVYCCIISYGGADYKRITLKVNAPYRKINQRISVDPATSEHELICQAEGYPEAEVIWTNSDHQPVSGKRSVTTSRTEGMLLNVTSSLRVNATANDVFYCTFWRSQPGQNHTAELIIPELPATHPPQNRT
Protocol: (§1) A 96-well plate was coated with 1 μg/mL mouse PD-L1-hFc protein (manufacturer: ACRO Biosystems) and incubated at 4° C. overnight. The plate was washed with wash buffer and blocked with a PBS solution containing 2% BSA for 60 minutes. After a wash with wash buffer, different concentrations of the antibodies to be tested (the initial concentration was 100 nM, and 4-fold gradient dilution was performed) were added, and the plate was incubated at 37° C. for 120 minutes. The plate was washed with wash buffer, and an HRP-labeled goat anti-human secondary antibody (diluted at 1:10,000) was then added. The plate was incubated at 37° C. for 60 minutes. The plate was washed with wash buffer, and TMB substrate solution was added at 100 μL/well. After 10-15 minutes of reaction at room temperature, 100 μL of 2 M hydrochloric acid stop solution was added to stop the reaction, and OD450 values were measured with a microplate reader.

[4] = target: T3, Cynomolgus/Rhesus macaque PD-L1-hFc protein (ACRO Biosystems) (Cynomolgus/Rhesus macaque, UniProt G7PSE7 19-238); experiment: ELISA, plate coated with Cynomolgus/Rhesus macaque PD-L1-hFc
T3 construct: Bought protein; also called Cyno PD-L1; cynomolgus monkey PD-L1
T3 sequence (G7PSE7 entry or part of it limits assumed, form in doubt): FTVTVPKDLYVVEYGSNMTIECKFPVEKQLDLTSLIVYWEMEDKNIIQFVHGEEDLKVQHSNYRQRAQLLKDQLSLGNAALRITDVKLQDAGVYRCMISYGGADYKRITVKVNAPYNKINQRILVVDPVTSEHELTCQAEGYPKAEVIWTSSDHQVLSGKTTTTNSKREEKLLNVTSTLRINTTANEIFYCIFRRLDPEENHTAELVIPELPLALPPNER
Protocol: as §1, with “1 μg/mL Cynomolgus/Rhesus macaque PD-L1-hFc protein” for “1 μg/mL mouse PD-L1-hFc protein”, “buffer and then blocked with” for “buffer and blocked with”, “(diluted at 1:10,000, manufacturer: Jackson) was then” for “(diluted at 1:10,000) was then”, “stop the reaction.” for “stop the reaction, and OD450 values were measured with a microplate reader.”

human PD-L1 on cells [5] = target: T1, human PD-L1 on cells; experiment: competitive flow cytometry on 293T-PD-L1 cells, blocking of human-CD80-mFc binding
Protocol: The blocking of PD-L1 binding to CD-80 by the antibodies was measured using a competitive flow cytometry method. 293T-PD-L1 cells were added to a 96-well plate at 1×10⁵ cells/well. Antibody dilutions with different concentrations (the initial working concentration was 200 nM, and 4-fold dilution was performed) were added to the cells, and the plate was incubated at 4° C. for 30 minutes. After the incubation, the plate was washed with PBS containing 2% FBS and centrifuged at 1200 rpm for 4 minutes, and the supernatants were discarded. Then human-CD80-mFc (2 μg/mL, manufacturer: ACRO) was added at 100 μL/well, and the plate was incubated in the dark at 4° C. for 30 minutes. After the incubation, the plate was washed with PBS containing 2% FBS. A fluorescently labeled goat anti-mouse IgG secondary antibody diluted at 1:200 was added at 100 μL/well, and the plate was incubated in the dark at 4° C. for 30 minutes. After the incubation, the plate was washed with PBS containing 2% FBS and tested on a flow cytometer. The mean fluorescence values were measured.

Chain of PD-L1-Biotin (Q9NZQ7 19-238 limits assumed): as the sequence (G7PSE7 entry or part of it limits assumed, form in doubt) above, with T33A, S34A, N62S, Q68R, R82Q, L173F, A185T, I192T, L215H counted along it

B1: antibody 1 (VHH)
VHH: QVQLVESGGGLVQAGGSLRLSCAASGRSFSSSGMGWFRQAPGKDREFVATINSSGGDTYYRDSVEGRFTTSRDNAKNTMSLQMNDLKPEDTAVYYCAAKEGGGPSSIPAIYDYWGQGTQVTVSS
notes: expressed in mammalian cells
B1 was tested, and the IC50 (PD-L1-Biotin) was 4.2 nM, the EC50 (human PD-L1 on cells [1]) was 0.041 nM and the “IC50 (nM), NFAT-luciferase reporter gene assay” value (“IC50 (nM)” for short) (human PD-L1 on cells [2]) was 0.378 nM. The binding result [3] was “no binding (tested: initial concentration 100 nM)”, the EC50 [4] was 0.133 nM and the IC50 (human PD-L1 on cells [5]) was 2.6 nM.

B2: antibody 5 (VHH)
VHH: QVQLVESGGGLVQAGGSLRLSCAASGRSFSSSGMGWFRQAPGKDREFVATINSSGGDTYYADSVEGRFTTSRDNAKNTMSLQMNDLKPEDTAVYYCAAKEGGGPSSIPAIFDYWGQGTQVTVSS
In the case of B2, the “IC50 (nM)” value (human PD-L1 on cells [2]) is reported as 0.305 nM, the binding result [3] is reported as “no binding (tested: initial concentration 100 nM)” and the EC50 [4] is reported as 0.034 nM.

B3: antibody 2 (VHH)
VHH: QVQLVESGGGLVQPGGSLSLSCVASGFTFSSYAMRWVRQAPGKEPEWVAGINTGSEIVVYANSVRGRFAISRDNARDTLFLQMNSLKPEDTAVYYCATGLVSAEHDGIWGQGTQVTVSS
B3 was tested, and the IC50 (PD-L1-Biotin) was 2.7 nM, the EC50 (human PD-L1 on cells [1]) was 0.14 nM and the “IC50 (nM)” value (human PD-L1 on cells [2]) was 0.2 nM. The binding result [3] was “no binding (tested: initial concentration 100 nM)”, the EC50 [4] was 0.136 nM and the IC50 (human PD-L1 on cells [5]) was 1.5 nM.

B4: antibody 3 (VHH)
VHH: EVQLVESGGGSVQTGGSLRLSCVASGRDFLTYGMGWFRQAPGKEREFVASINWSGSMTYYADSVKGRFTISRDNAKNTVYLQMNSLKPGDTAVYICAARRGAVTYASSNEYEHWGQGTQVTVSS
For B4, the IC50 (PD-L1-Biotin) was 1.1 nM, the EC50 (human PD-L1 on cells [1]) was 0.025 nM and the “IC50 (nM)” value (human PD-L1 on cells [2]) was 0.211 nM. The binding result [3] was “no binding (tested: initial concentration 100 nM)”, the EC50 [4] was 0.04 nM and the IC50 (human PD-L1 on cells [5]) was 5.2 nM.

B5: antibody 3hu (VHH)
VHH: EVQLVESGGGLVQPGGSLRLSCAASGRDFLTYGMGWFRQAPGKGREFVASINWSGSMTYYADSVKGRFTISRDNAKNTVYLQMNSLKAEDTAVYICAARRGAVTYASSNEYEHWGQGTLVTVSS
notes: Humanized nanobody; also called humanized antibody 3
In the case of B5, the EC50 (human PD-L1 on cells [1]) is reported as 0.025 nM.

B6: antibody 4 (VHH)
VHH: EVQLVESGGGLVQAGDSLRLSCTASGRDFLTYGMGWFRQAPGKEREFVASINWSGSMTYYADSVKGRFTISRDNAKNTVYLQMNSLKPGDTAVYICAARRGAVTYASSNEYEHWGQGTQVTVSS
With B6 the IC50 (PD-L1-Biotin) was 2.8 nM, the EC50 (human PD-L1 on cells [1]) was 0.16 nM and the “IC50 (nM)” value (human PD-L1 on cells [2]) was 0.26 nM. The binding result [3] was “no binding (tested: initial concentration 100 nM)”, the EC50 [4] was 0.034 nM and the IC50 (human PD-L1 on cells [5]) was 1.5 nM.
